Measurements reported in publication PMC7946891, “Versatility in acyltransferase activity completes chicoric acid biosynthesis in purple coneflower” (Nature Communications, 2021).

Tests used:
[1] = substrate: COc1cc(/C=C/C(=O)SCCNC(=O)CCNC(=O)[C@H](O)C(C)(C)COP(=O)(O)OP(=O)(O)OC[C@H]2O[C@@H](n3cnc4c(N)ncnc43)[C@H](O)[C@@H]2OP(=O)(O)O)ccc1O; experiment: UPLC-DAD endpoint assay, Michaelis-Menten; format: biochemical, Echinacea purpurea; settings: PBS pH 7.0, 30 °C
[2] = substrate: CC(C)(COP(=O)(O)OP(=O)(O)OC[C@H]1O[C@@H](n2cnc3c(N)ncnc32)[C@H](O)[C@@H]1OP(=O)(O)O)[C@@H](O)C(=O)NCCC(=O)NCCSC(=O)/C=C/c1ccc(O)cc1; experiment: UPLC-DAD endpoint assay, Michaelis-Menten; format: biochemical, Echinacea purpurea; settings: PBS pH 7.0, 30 °C
[3] = substrate: O=C(O)[C@]1(O)C[C@@H](O)[C@@H](O)[C@H](O)C1; experiment: UPLC-DAD endpoint assay, Michaelis-Menten; format: biochemical, Echinacea purpurea; settings: 50 μM caffeoyl CoA, PBS pH 7.0, 30 °C
[4] = substrate: CC(C)(COP(=O)(O)OP(=O)(O)OC[C@H]1O[C@@H](n2cnc3c(N)ncnc32)[C@H](O)[C@@H]1OP(=O)(O)O)[C@@H](O)C(=O)NCCC(=O)NCCSC(=O)/C=C/c1ccc(O)c(O)c1; experiment: UPLC-DAD endpoint assay, Michaelis-Menten; format: biochemical, Echinacea purpurea; settings: PBS pH 7.0, 30 °C
[5] = substrate: O=C(O)C(O)C(O)C(=O)O; experiment: purified protein, by the assay type; design: Michaelis-Menten kinetics of recombinant EpHTT, product quantified by UPLC-DAD; settings: pH 7.0; 16.0 °C
purified protein [6] = substrate: O=C(O)C(O)C(O)C(=O)O; experiment: purified protein; settings: 50 μM caffeoyl CoA, PBS pH 7.0, 30 °C, pH 7.0
purified protein [7] = substrate: O=C(/C=C/c1ccc(O)c(O)c1)O[C@@H]1O[C@H](CO)[C@@H](O)[C@H](O)[C@H]1O; experiment: purified protein; format: biochemical, Echinacea purpurea; settings: 200 μM caftaric acid as acyl acceptor, 10 mM Na2HPO4, pH 4.0, 30 °C
purified protein [8] = substrate: O=C(/C=C/c1ccc(O)c(O)c1)O[C@@H](C(=O)O)[C@@H](O)C(=O)O; experiment: purified protein; format: biochemical, Echinacea purpurea; settings: 200 μM chlorogenic acid as acyl donor, 10 mM Na2HPO4, pH 4.0, 30 °C
purified protein [9] = substrate: O=C(/C=C/c1ccc(O)c(O)c1)O[C@@H]1C[C@](O)(C(=O)O)C[C@@H](O)[C@H]1O; experiment: purified protein; settings: 200 μM caftaric acid as acyl acceptor, 10 mM Na2HPO4, pH 4.0, 30 °C, pH 4.0

B1: EpHQT (Echinacea purpurea) (protein)
chain: MNITITKSSLIPPSETLPGSETRLWTSNLDLVVGRIHILTVYFYRPNGSSNFFDPNAMKQALADVLVSFYPMAGRLGRDESGRVVINCNGEGALFVEAEADSCLDDFGEFTPSPELRSLTPAVDYSGDVSSYPLFFAQVTHFKCGGVSLGCGVFHTLSDGLSSLHFINTWSDVARGLSVAIPPFIDRTLLRAREPPTPTHDHVEYHPPPTMTMLNTIQKPGPLSKSSTTMLKLTLDQLNTLKAKTKTEGGPSYSTYEILAAHIWRCACKARGLPDDQLTKLYVATDGRSRLSPHLPRGYLGNVVFTATPVATSGALTSDSLQNAAKLIHTTLTQMDNEYLRSAIDYLEIQPDLSALIRGPSYFASPNLNINAWSRLPVHDADFGWGRPVFMGPAIILYEGTVYVLPSPNNDRSVSLAVCLDAKEQPLFEKYLYEF
notes: full-length CDS, N-terminal 6xHis (pDEST17), E. coli BL21(DE3), Ni-NTA purified
Km ([1]; 1 mM quinic acid): 38.623 ± 14.588 µM | kcat ([1]; 1 mM quinic acid): 0.0007 ± 0.00009 s⁻¹ | Km ([2]; 1 mM quinic acid): 70.547 ± 43.952 µM | kcat ([2]; 1 mM quinic acid): 0.060 ± 0.036 s⁻¹ | Km [3]: 576.167 ± 72.176 µM | kcat [3]: 0.157 ± 0.007 s⁻¹ | Km ([4]; 1 mM quinic acid): 7.231 ± 1.577 µM | kcat ([4]; 1 mM quinic acid): 0.111 ± 0.005 s⁻¹

B2: EpHTT (Echinacea purpurea) (protein)
chain: MKVVVRESTVVRPAEESPPRKLWNSSLDLTNLNGHTLVVYFYRPNGASDFFNTKLMKDTLSRMLVAFYPFAGRFKYDQHGRVETDCQGQGALFLEAESDGLIDDFGDFLPTLEYLKLIPAIDYSKGIDSFPLMVFQVTFFKCGGVSLGVGMHHHLVDGMSGLHFTNTWADMTRGLDITLPPFIDRTLLRPRDPPRPVFEHIEYQSDPTPLKVSLDETKTSFSMFKLTRNQLALLKEKAKEEGNKISYTTFEMFSAHVWKCVCKARGLPDDVETKLYLPVDGRARLQPPLPPGYFGNVIFDAAVIATAGDIKSKPIWYAAGKIHDSLARMNNDYLRSAIDYLEQHNCKKPYVDYNTNLRINSWARLPIHDADFGWGRPIFMGRTGLPSVGRVYVLPSAMDDGSLSIILGLEAEEMKVFGNLLYAI
notes: as for B1
Km [5]: 458.600 ± 80.431 µM | kcat [5]: 0.176 ± 0.052 s⁻¹ | kcat/Km [5]: 390 ± 122 M⁻¹ s⁻¹ | Km (purified protein [6]): 841.967 ± 35.474 µM | kcat (purified protein [6]): 0.685 ± 0.016 s⁻¹ | Km ([1]; 0.5 mM tartaric acid): 48.010 ± 11.329 µM | kcat ([1]; 0.5 mM tartaric acid): 0.122 ± 0.011 s⁻¹ | Km ([2]; 0.5 mM tartaric acid): 22.027 ± 3.818 µM | kcat ([2]; 0.5 mM tartaric acid): 0.007 ± 0.001 s⁻¹ | Km ([4]; 0.5 mM tartaric acid): 34.760 ± 6.832 µM | kcat ([4]; 0.5 mM tartaric acid): 0.588 ± 0.064 s⁻¹

B3: EpCAS (Echinacea purpurea) (protein)
chain: ASTIVKNLPGFHGDLPCTIETGYIGVGADDEVQFFYYFVESERDPSRDPLIYYLTGGPGTTALYPFLFQIGPLSINYDNSTWEKLTLELNPYSWSKAANVLFVDLPAGTGFSYGTTYEATKSSDSISAQQGYEFLIKWLEENPRFLNNSLYIAGTSYMGIVVPVVTLEVYKGNERGDQPQLNVKGYAISSPLTDKFSDFNSRFEFAHRAALISDDIYKSAKNNCGGNYIYNAVENTECARSLQRFEECTSRINEANILDPLCDEDSQDPVCGEVGDKYLKYYGNDKEVQKALGVREGTIEEFVKTNQSIHYLINKEDQDCYSYDIFSTIIYHKSLVSRNCQALILSADHDFTFPYVGVEQWITSLNLPLESPWNPWFVNNQVAGYRLKYARNGYSLTYATVKGAGHSIALYKPRETWVILDEWLASNSYLSDS
notes: full-length cDNA, C-terminal 6xHis (pESC-His), S. cerevisiae BY4741, Ni-NTA purified; vacuolar targeting peptide Met1-His24
Km (purified protein [7]): 121.400 ± 12.163 µM | kcat (purified protein [7]): 1.09e-05 ± 8.7e-07 s⁻¹ | Km (purified protein [8]): 53.910 ± 0.613 µM | kcat (purified protein [8]): 0.005 ± 0.00002 s⁻¹ | Km (purified protein [9]): 83.910 ± 7.811 µM | kcat (purified protein [9]): 0.005 ± 0.0003 s⁻¹
